Earlier results in paper PMC7772776.

Experiments:
[1] = molecular target: Cys46 (UniProt position 47, DFTFVCPTELG)
[2] = molecular target: Cys29 (UniProt position 108, GSCGSCWAFGA)
[3] = molecular target: Cys72 (UniProt position 72, VFGMGCFWGAE)
[4] = molecular target: Cys283 (UniProt position 283, GYVLTCPSNLG)
[5] = molecular target: Cys283 (UniProt position 283, GYVLTCPANLG)
[6] = molecular target: Cys125 (UniProt position 126, PGDFGCDAQGA)
[7] = molecular target: Cys124 (UniProt position 125, HPGDFCADAQG)
[8] = molecular target: Cys145 (UniProt position 145, PILIPCHRVVC)
[9] = molecular target: Cys25 (UniProt position 158, GSCGSCWAFSA)
[10] = molecular target: Cys25 (UniProt position 157, GSCGSCWAFSA)
[11] = molecular target: Cys88 (UniProt position 88, ADGSICLDILQ)
[12] = molecular target: Cys87 (UniProt position 87, RLGRICLDVLK)
[13] = molecular target: Cys102 (UniProt position 102, KFLTPCYHPNV)

Alkyl hydroperoxide reductase C (AhpC) (Salmonella (article gives genus only; Salmonella typhimurium inferred))
pKa [1]: 5.9

Cathepsin B (Rattus norvegicus)
pKa [2]: 3.6

Methionine sulfoxide reductase A (MmsrA) (Mus musculus)
pKa [3]: 7.2

Methionine sulfoxide reductase A E115Q (MmsrA E115Q) (Mus musculus; E115Q)
pKa [3]: 8.2

Muscle creatine kinase (HMCK) (Homo sapiens)
pKa [4]: 5.6

Muscle creatine kinase S285A (HMCK S285A) (Homo sapiens; S285A)
pKa [5]: 6.7

Myoglobin A125C (Mb A125C) (Physeter macrocephalus (sperm whale); A125C)
pKa [6]: 8.4

Myoglobin G124C (Mb G124C) (Physeter macrocephalus (sperm whale); G124C)
pKa [7]: 6.5

O6-alkylguanine-DNA alkyltransferase (AGT) (Homo sapiens)
pKa [8]: 5.3

Papain (papaya proteinase I) (Carica papaya)
pKa [9]: 3.3

Papaya protease omega (caricain) (Carica papaya)
pKa [10]: 2.9

Ubiquitin-conjugating enzyme E2 B (Ubc2b; 'Ubc2' in Table 1) (Homo sapiens)
pKa [11]: 10.2

Ubiquitin-conjugating enzyme Ubc13 (Saccharomyces cerevisiae)
pKa [12]: 11.1

Ubiquitin-conjugating enzyme UbcH10 C114S (Homo sapiens; C114S)
pKa [13]: 10.9
